US20200299395A1 (MOGAM INSTITUTE FOR BIOMEDICAL RESEARCH, published 2020)

Assays:
[1] = target: BCMA expressed on multiple myeloma cell lines H929 and MM1S (UniProt Q02223); experiment: flow cytometry, H929 cells, negative control without VH-Fc protein [B), H929 table]
[2] = target: BCMA expressed on multiple myeloma cell lines H929 and MM1S (UniProt Q02223); experiment: flow cytometry, MM1S cells, negative control without VH-Fc protein [B), MM1S table]
[3] = target: BCMA expressed on multiple myeloma cell lines H929 and MM1S (UniProt Q02223); experiment: flow cytometry, MM1S cells, negative control without VH domain [B), MM1S table]
[4] = target: BCMA expressed on multiple myeloma cell lines H929 and MM1S (UniProt Q02223); experiment: flow cytometry, H929 cells, negative control without VH domain [B), H929 table]
[5] = target: T1, BCMA expressed on multiple myeloma cell lines H929 and MM1S (UniProt Q02223 1-184, limits assumed); experiment: flow cytometry, MM1S cells, purified VH domain (text: 1 uM); control iso_anti-His-PE Median 3.74 [B), MM1S table]
T1 construct: whole, on cells; Endogenous BCMA on tumour cell lines; also called BMCA; cell surface BCMA
T1 sequence (looked up): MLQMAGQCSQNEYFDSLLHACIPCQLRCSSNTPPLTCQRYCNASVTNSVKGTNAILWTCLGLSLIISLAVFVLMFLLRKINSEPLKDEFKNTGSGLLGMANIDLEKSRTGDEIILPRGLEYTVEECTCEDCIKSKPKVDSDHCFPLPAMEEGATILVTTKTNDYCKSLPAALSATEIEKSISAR
Protocol: (§1) Multiple myeloma cells in culture were placed in a 50 ml tube and centrifuged at 1,000 rpm for 5 minutes at room temperature. Then, the culture solution was discarded and washing with PBS was performed once. The resultant was suspended in FACS buffer and then transferred to a round bottom tube. Centrifugation was performed at 2,000 rpm for 3 minutes at room temperature. The supernatant was discarded and loosening was performed with FACS buffer so as to obtain 1×10⁶ cells/100 μl. Then, 1 uM of the purified candidate antibody was added thereto at 4° C.
(§2) As a control, FACS buffer containing no candidate antibody was added. After 30 minutes, washing with FACS buffer was performed twice. […] The cells were collected by centrifugation at 2,000 rpm for 3 minutes, and then 200 μl of fixation buffer was added thereto. The cells were resuspended and measured by FACS Calibur™. The results are illustrated in FIGS. 4 and 5.

[6] = target: T1, BCMA expressed on multiple myeloma cell …; experiment: flow cytometry, H929 cells, purified VH domain (text: 1 uM); control iso_anti-His-PE Mean 13.5 [B), H929 table]
Protocol: as §1, §2

[7] = target: T2, recombinant human BCMA (Cat. No. 193-BC, R&D Systems) (human, UniProt Q02223 1-54); experiment: BLI (Octet), BCMA fixed on Anti-Fc Biosensor, antibody 0.078 to 5 nM
T2 sequence (looked up): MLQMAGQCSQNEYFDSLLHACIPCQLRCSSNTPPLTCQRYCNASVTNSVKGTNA
Protocol: Among the selected 20 clones, Clones MN1, MN5, MN7, and MN8 which were expected to have excellent binding capacity to BCMA-expressing tumor cell lines were purified. Quantitative binding capacity (affinity) of Clones MN1, MN5, MN7, and MN8 to recombinant human BCMA was measured using the OCTET system (Pall Corporation). BCMA (Cat. No. 193-BC, R&D Systems) purified from HEK293 cells was fixed to Biosensor (Pall Corporation). Then, the MN1, MN5, MN7, or MN8 antibody diluted sequentially in Kinetic bfr (Pall Corporation) was allowed to associate in a concentration range of 0.078 nM to 5 nM for 120 seconds, and was allowed to dissociate by performing flowing at a flow rate of 30 μl/min for 1,800 seconds. Dissociation of the BCMA-bound antibody was induced by flowing 10 mM glycine-HCl pH 1.5 at a flow rate of 30 μl/min for 30 seconds (Table 3). The binding affinity was obtained as the kinetic parameters (Kon and Koff) and the equilibrium dissociation constant (KD) using the Octet system data analysis software (Table 4).

[8] = target: T1, BCMA expressed on multiple myeloma cell …; experiment: flow cytometry, H929 cells, purified VH domain (text: 1 uM); control iso_anti-His-PE Median 10.8 [B), H929 table]
Protocol: as §1, §2

[9] = target: T1, BCMA expressed on multiple myeloma cell …; experiment: flow cytometry, MM1S cells, purified VH domain (text: 1 uM); control iso_anti-His-PE Mean 4.19 [B), MM1S table]
Protocol: as §1, §2

[10] = target: T1, BCMA expressed on multiple myeloma cell …; experiment: flow cytometry, H929 cells, purified VH-Fc protein, 100nM per the sample name; control anti-hFc-PE Median 4.82 [B), H929 table]
[11] = target: T1, BCMA expressed on multiple myeloma cell …; experiment: flow cytometry, MM1S cells, purified VH-Fc protein, 100nM per the sample name; control anti-hFc-PE Mean 2.81 [B), MM1S table]
[12] = target: T1, BCMA expressed on multiple myeloma cell …; experiment: flow cytometry, H929 cells, purified VH-Fc protein, 100nM per the sample name; control anti-hFc-PE Mean 5.41 [B), H929 table]
[13] = target: T1, BCMA expressed on multiple myeloma cell …; experiment: flow cytometry, MM1S cells, purified VH-Fc protein, 100nM per the sample name; control anti-hFc-PE Median 2.50 [B), MM1S table]

| Molecule | Median FL2-H [5] | Mean FL2-H [6] | Kd [7] | Median FL2-H [8] | Mean FL2-H [9] | Median FL2-H [10] | Mean FL2-H [11] | Mean FL2-H [12] | Median FL2-H [13] | further results |
| --- | --- | --- | --- | --- | --- | --- | --- | --- | --- | --- |
| anti-hFc-PE (antibody) | – | – | – | – | – | – | – | – | – | Mean FL2-H [1]: 5.41; Median FL2-H [1]: 4.82; Mean FL2-H [2]: 2.81; Median FL2-H [2]: 2.5 |
| iso_anti-His-PE (antibody) | – | – | – | – | – | – | – | – | – | Mean FL2-H [3]: 4.19; Median FL2-H [3]: 3.74; Mean FL2-H [4]: 13.5; Median FL2-H [4]: 10.8 |
| Clone MN1 (VH domain) (VHH, Single-domain antibody: a VH domain from a synthetic phage library, not camelid; Expressed in E. coli) VHH: EVQLVESGGGLVQPGGSLRLSCAASGFTFTAYDMGWVRQAPGKGPEWVSLISSDSGDTWYDDSVKGRFTISRDNSKNTLYLQMNSLRAEDTAVYYCARLGAYSTTYDYWGQGTLVTVSS | 14.3 | 62.9 | 0.7 nM | 50.4 | 24 | – | – | – | – | – |
| MN1 VH-Fc protein (Fc fusion, VH domain fused to a human IgG1 Fc domain; not shown: human IgG1 Fc domain) EVQLVESGGGLVQPGGSLRLSCAASGFTFTAYDMGWVRQAPGKGPEWVSLISSDSGDTWYDDSVKGRFTISRDNSKNTLYLQMNSLRAEDTAVYYCARLGAYSTTYDYWGQGTLVTVSS | – | – | – | – | – | 101 | 49.9 | 134 | 42.1 | – |
| Clone MN8 (VH domain) (VHH, Single-domain antibody: a VH domain from a synthetic phage library, not camelid; Expressed in E. coli) VHH: EVQLVESGGGLVQPGGSLRLSCAASGFTFSSYAMGWVRQAPGKGPEVVSLISGSGGSTWYDDSVKGRFTISRDNSKNTLYLQMNSLRAEDTAVYYCASPEDAPSYSRWGQGTLVTVSS | 4.43 | 15.1 | 1.17 nM | 12.9 | 4.93 | – | – | – | – | – |
| MN8 VH-Fc protein (Fc fusion, VH domain fused to a human IgG1 Fc domain; not shown: human IgG1 Fc domain) EVQLVESGGGLVQPGGSLRLSCAASGFTFSSYAMGWVRQAPGKGPEVVSLISGSGGSTWYDDSVKGRFTISRDNSKNTLYLQMNSLRAEDTAVYYCASPEDAPSYSRWGQGTLVTVSS | – | – | – | – | – | 10.3 | 3.13 | 14 | 2.77 | – |
| Clone MN5 (VH domain) (VHH, Single-domain antibody: a VH domain from a synthetic phage library, not camelid; Expressed in E. coli) VHH: EVQLVESGGGLVQPGGSLRLSCAASGFTFSSYAMGWVRQAPGKGPEVVSLISGSGGSTWYDDSVKGRFTISRDNSKNTLYLQMNSLRAEDTAVYYCASREDNMTTWGQGTLVTVSS | 9.81 | 25.6 | 2.22 nM | 22.9 | 13.9 | – | – | – | – | – |
| MN5 VH-Fc protein (Fc fusion, VH domain fused to a human IgG1 Fc domain; not shown: human IgG1 Fc domain) EVQLVESGGGLVQPGGSLRLSCAASGFTFSSYAMGWVRQAPGKGPEVVSLISGSGGSTWYDDSVKGRFTISRDNSKNTLYLQMNSLRAEDTAVYYCASREDNMTTWGQGTLVTVSS | – | – | – | – | – | 7.78 | 3.02 | 10.6 | 2.64 | – |
| Clone MN7 (VH domain) (VHH, Single-domain antibody: a VH domain from a synthetic phage library, not camelid; Expressed in E. coli) VHH: EVQLVESGGGLVQPGGSLRLSCAASGFTFSSYAMGWVRQAPGKGPEVVSLISGSGGSTWYDDSVKGRFTISRDNSKNTLYLQMNSLRAEDTAVYYCASPEDMYQTWGQGTLVTVSS | 4.49 | 14.8 | 2.23 nM | 11.8 | 5.38 | – | – | – | – | – |
| MN7 VH-Fc protein (Fc fusion, VH domain fused to a human IgG1 Fc domain; not shown: human IgG1 Fc domain) EVQLVESGGGLVQPGGSLRLSCAASGFTFSSYAMGWVRQAPGKGPEVVSLISGSGGSTWYDDSVKGRFTISRDNSKNTLYLQMNSLRAEDTAVYYCASPEDMYQTWGQGTLVTVSS | – | – | – | – | – | 7.92 | 2.89 | 10.1 | 2.55 | – |
